Data on two substances can be found in publication PMC4468108.

For test [1], the target named is DsRmChΔ5 (UniProt Q9U6Y8). Nature of the test: AUC; sedimentation velocity, 40,000 RPM overnight, PBS pH 7.4, sample diluted to A575 of 0.5, c(m) distribution in Sedfit.
The target in test [2] is DsRmCh (UniProt Q9U6Y8). In words: SEC; Superdex 75 10/300, 100 μl of purified protein, absorbance at 575 nm. (In general: Size exclusion chromatography separates by hydrodynamic size, large species first.)
In test [3] the target is DsRmCh (UniProt Q9U6Y8). In words: AUC; sedimentation velocity, 40,000 RPM overnight, PBS pH 7.4, sample diluted to A575 of 0.5, c(m) distribution in Sedfit.

In general, stoichiometry N refers to a count of units in the complex or per binding partner. On to DsRmChΔ5 (from UniProt Q9U6Y8 1-220), for which the stoichiometry N in test [1] amounted to 4. Consider DsRmCh (from UniProt Q9U6Y8 1-225), for which the stoichiometry N in test [2] and in test [3] was 4 throughout.
